Self-cleavage data for 167 variants are collected here from the RNAGym collection of RNA variant scans (doi:10.7554/elife.80360).

B1: Hammerhead Ribozyme (parent)
chain: ACCGGAUGUGCUUUCCGGUCUGAUGAGUCCGUGAGGACGAAACAG
B2: CPEB3 Ribozyme (parent)
chain: GGGGGCCACAGCAGAAGCGUUCACGUCGCGGCCCCUGUCAGAUUCUGGUGAAUCUGCGAAUUCUGCUGU

The variants in the first data set derive from B1. Briefly: self-cleavage, relative activity (ratio to wild type); higher = more cleavage; co-transcriptional.
In the case of A1G A23U, the self-cleavage turned out to be 0.424.

Take A1G A23G: the self-cleavage was found to be 0.413.

The variants in another data set derive from B2. Described as above.
For G65C U67C, the self-cleavage came to 0.905.

Turning to G65C U67G, the self-cleavage turned out to be 0.905.

On to U67A G68U, for which the self-cleavage stood at 1.01.

U67A G68C: the self-cleavage was 0.955.

U67A G68A: the self-cleavage was found to be 1.07.

With G65U C66U, the self-cleavage amounted to 0.55.

With G65U C66A, the self-cleavage is 0.669.

As to G65U C66G, the self-cleavage worked out at 0.814.

Regarding U64G G68C, the self-cleavage was determined as 0.799.

Consider U64G G68A, for which the self-cleavage is 1.

Regarding U64G G68U, the self-cleavage came out at 0.923.

For C66G U69C, the self-cleavage came to 1.01.

On to C66G U69A, for which the self-cleavage is 1.02.

Regarding C66G U69G, the self-cleavage was 0.923.

Take C66A: the self-cleavage stood at 0.911.

Turning to C66G, the self-cleavage was found to be 0.937.

C66U: the self-cleavage is 0.99.

Take U64A G65A: the self-cleavage was 0.701.

Consider C66U U67C, for which the self-cleavage was found to be 0.956.

In the case of C66U U67G, the self-cleavage was determined as 1.

As to U64G G65C, the self-cleavage turned out to be 0.679.

As for U64G G65A, the self-cleavage is 0.578.

Turning to G65U U69A, the self-cleavage turned out to be 0.835.

Regarding G65U U69C, the self-cleavage is 0.97.

C63G U64G: the self-cleavage was determined as 0.471.

With G65C C66U, the self-cleavage is 0.816.

With G65C C66G, the self-cleavage turned out to be 0.65.

Turning to C66G U67A, the self-cleavage was 0.937.

For the variant C66G U67G, the self-cleavage was determined as 0.909.

Turning to C63A U64C, the self-cleavage turned out to be 0.639.

On to C63A U64A, for which the self-cleavage was 0.62.

For the variant U62C U69G, the self-cleavage came to 0.984.

Regarding U62C U69A, the self-cleavage is 1.01.

As for U62C U69C, the self-cleavage came to 1.03.

Take U62G C63G: the self-cleavage was 0.334.

For U62G C63A, the self-cleavage was determined as 0.856.

Consider U62G C63U, for which the self-cleavage stood at 0.661.

As for C66U G68C, the self-cleavage came to 0.991.

Consider C63G G68A, for which the self-cleavage stood at 0.849.

C63G G68U: the self-cleavage was 0.584.

As to U62G G68A, the self-cleavage worked out at 0.894.

Regarding U62G G68U, the self-cleavage turned out to be 0.683.

U67A U69C: the self-cleavage was found to be 1.07.

In the case of U67A U69A, the self-cleavage is 0.996.

Consider U67A U69G, for which the self-cleavage was 1.04.

As to U67C G68A, the self-cleavage was determined as 0.983.

As for U67C G68U, the self-cleavage was determined as 1.06.

With C63G U69C, the self-cleavage came out at 1.04.

For the variant C63G U69A, the self-cleavage stood at 0.864.

Turning to C63U U67C, the self-cleavage amounted to 0.968.

Regarding C63U U67G, the self-cleavage was 0.985.

As to U62C G68U, the self-cleavage worked out at 0.934.

In the case of U62C G68A, the self-cleavage was 1.

Take U62C G68C: the self-cleavage was determined as 0.806.

With U62C C63G, the self-cleavage worked out at 0.545.

U62C C63U: the self-cleavage amounted to 0.795.

Regarding U64C U69C, the self-cleavage was determined as 1.07.

On to U64G U69G, for which the self-cleavage was 1.02.

Turning to U64G U69A, the self-cleavage is 0.97.

Turning to U64G U69C, the self-cleavage was 1.05.

On to C63G G65C, for which the self-cleavage came out at 0.366.

As to U62C U67G, the self-cleavage came out at 0.865.

As for U62C U67A, the self-cleavage was determined as 0.738.

Take U62C U67C: the self-cleavage is 0.687.

In the case of U62C U64C, the self-cleavage was determined as 0.46.

Regarding U62C U64G, the self-cleavage came to 0.489.

As for U62C U64A, the self-cleavage was determined as 0.507.

Regarding G68U U69C, the self-cleavage was determined as 1.1.

Consider G68U U69A, for which the self-cleavage is 1.01.

Take G68U U69G: the self-cleavage was 1.02.

As for U62G U69G, the self-cleavage was determined as 1.01.

Consider U62G U69C, for which the self-cleavage turned out to be 1.03.

As to U62G U69A, the self-cleavage came to 0.937.

Take C63U: the self-cleavage was 0.991.

Consider C63A, for which the self-cleavage was determined as 0.919.

With C63G, the self-cleavage is 0.87.

G65A U67C: the self-cleavage amounted to 0.844.

As to G65A U67G, the self-cleavage turned out to be 0.887.

Turning to G65A U67A, the self-cleavage came to 0.793.

As for G65A, the self-cleavage worked out at 0.954.

For the variant G65C, the self-cleavage was 0.758.

In the case of G65U, the self-cleavage turned out to be 0.877.

On to C63A G68C, for which the self-cleavage came to 0.931.

C63A G68A: the self-cleavage was 0.964.

C63A G68U: the self-cleavage came to 0.878.

For U62G U64G, the self-cleavage stood at 0.533.

With U64C U67C, the self-cleavage turned out to be 0.764.

Turning to U64C U67A, the self-cleavage stood at 0.864.

As to C66A G68C, the self-cleavage stood at 0.84.

Consider C66A G68U, for which the self-cleavage was 0.799.

On to U64C G65C, for which the self-cleavage came out at 0.504.

For the variant U64C G65A, the self-cleavage was determined as 0.565.

U62A U69A: the self-cleavage was determined as 0.942.

As for U62A U69G, the self-cleavage stood at 1.

For the variant G65A U69G, the self-cleavage was 0.947.

With U64A C66G, the self-cleavage was found to be 0.417.

For the variant U64A C66A, the self-cleavage was determined as 0.502.

On to U64A C66U, for which the self-cleavage amounted to 0.668.

As for U62C, the self-cleavage amounted to 0.927.

As for U62G, the self-cleavage was found to be 0.925.

Regarding C63G C66G, the self-cleavage turned out to be 0.487.

Consider C63G C66U, for which the self-cleavage came out at 0.387.

C63G C66A: the self-cleavage stood at 0.248.

As to U62G C66U, the self-cleavage came to 0.579.

Consider U62G C66A, for which the self-cleavage came out at 0.376.

In the case of C66G G68A, the self-cleavage came to 0.96.

In the case of U64C C66G, the self-cleavage amounted to 0.555.

Consider U64C C66U, for which the self-cleavage came to 0.624.

C63A U69G: the self-cleavage came to 0.991.

As to C63A U69A, the self-cleavage turned out to be 0.949.

Consider C63A U69C, for which the self-cleavage stood at 1.07.

For U62G U67A, the self-cleavage is 0.764.

As to G65A G68A, the self-cleavage worked out at 0.941.

Turning to G65A G68U, the self-cleavage came to 0.813.

Consider G65A G68C, for which the self-cleavage amounted to 0.945.

On to U64A U67G, for which the self-cleavage is 0.922.

On to U64A U67A, for which the self-cleavage stood at 0.895.

Regarding G65U G68C, the self-cleavage was determined as 0.852.

On to C63U U64G, for which the self-cleavage is 0.777.

As to U64A G68U, the self-cleavage was 0.922.

As to U64A G68C, the self-cleavage came to 0.913.

Take G68A U69G: the self-cleavage is 1.06.

Consider C63A G65U, for which the self-cleavage was determined as 0.789.

As to C63A G65A, the self-cleavage stood at 0.509.

Take C63U U69G: the self-cleavage was 1.04.

Take C63U U69A: the self-cleavage worked out at 1.02.

Regarding G68C U69G, the self-cleavage was 1.11.

With G68C U69A, the self-cleavage was 1.06.

As to U64C G68C, the self-cleavage came to 0.911.

Turning to U64C G68A, the self-cleavage is 0.931.

Take G65A C66U: the self-cleavage is 0.77.

G65A C66G: the self-cleavage is 0.797.

As for U69G, the self-cleavage was 1.06.

Take U69C: the self-cleavage worked out at 1.06.

Regarding U69A, the self-cleavage was determined as 1.02.

On to U62C G65C, for which the self-cleavage is 0.488.

For the variant U62C C66A, the self-cleavage is 0.5.

Turning to C66U U69C, the self-cleavage came to 1.06.

Turning to C66U U69A, the self-cleavage was 1.03.

For the variant C63U C66U, the self-cleavage is 0.863.

As for C63U C66A, the self-cleavage stood at 0.473.

For the variant U62G G65A, the self-cleavage was determined as 0.285.

Regarding U62G G65C, the self-cleavage turned out to be 0.475.

Take C66A U69A: the self-cleavage was 0.969.

As to G65C G68A, the self-cleavage stood at 0.678.

Take U67C U69G: the self-cleavage worked out at 1.11.

On to U67C U69A, for which the self-cleavage came to 1.07.

Consider C63U G68A, for which the self-cleavage was determined as 0.967.

As to U67G G68C, the self-cleavage is 1.07.

Consider U67G G68U, for which the self-cleavage stood at 1.1.

As to G65C U69A, the self-cleavage was 0.828.

For the variant C66A U67A, the self-cleavage is 0.977.

As for C66A U67G, the self-cleavage was 0.891.

For the variant G65U U67A, the self-cleavage was found to be 0.848.

Take G65U U67G: the self-cleavage is 0.92.

For G65U U67C, the self-cleavage is 0.78.

Turning to C63G U67G, the self-cleavage was 0.752.

In the case of C63G U67C, the self-cleavage was determined as 0.569.

Take U64G C66G: the self-cleavage is 0.442.

As for U64G C66U, the self-cleavage came out at 0.558.

As for C63A U67A, the self-cleavage came to 0.757.

For the variant C63A U67G, the self-cleavage was 0.758.

Consider C63A U67C, for which the self-cleavage was 0.651.

For U67G U69A, the self-cleavage was 1.1.

Regarding U67G U69C, the self-cleavage is 1.1.
